Marks after values point to notes of the source that are not given here.
How the values were obtained:
Assay type in all cases: physicochemical, human
[1] = Aggregation/stability followed by NMR HSQC spectra at 20 °C
Method: To evaluate the stability of PTPN3-PDZ, we performed differential scanning calorimetry (DSC) (Fig. 2C). […] As a comparison, we performed DSC on PTPN4-PDZ. We obtained an endothermic peak with a Tm of 47 °C (Fig. 2C). […] This thermal instability of the PTPN3-PDZ construct could be responsible for its aggregation previously detected by NMR.
The instability and tendency to oligomerize of PTPN3-PDZ made this construct unsuitable for crystallogenesis. To gain in stability and protein expression yield, we extended the N-terminal extremity of PTPN3-PDZ by 15-residues with its wild-type upstream sequence (PTPN3-PDZNext in Fig. 1). These extensions have been reported to provide structural stability to some PDZ containing proteins[13],[14]. The PTPN3-PDZ production yield was increased two-fold after extension from 0.9 mg to 1.8 mg of purified protein per liter of culture. The stability of PTPN3-PDZNext was then evaluated by NMR HSQC spectra recorded during a week at 20 °C. […] The additional peaks of the N-terminal extension residues fall in the spectral region characteristic of unfolded protein and no chemical shift differences between PTPN3-PDZNext and the shorter form are detected.
A series of ^1H, ^15N HSQC spectra was recorded over a week at 20 °C for a sample of PTPN3-PDZNext at 170 μM to follow the stability of the construct.

[2] = DSC of free PDZ domain (thermal stability); conditions: 21 μM free PTPN3-PDZ, 18 μM PTPN4-PDZ, scan rate 200 °C/h, buffer A pH 7.5, repeated three times
Method: DSC experiments were carried out on a Microcal VP-capillary DSC (Malvern). 18, 21, 94 and 28 μM of PTPN4-PDZ, free PTPN3-PDZ, free PTPN3-PDZNext and PTPN3-PDZ complexed with peptides respectively were scanned from 10 °C to 90–100 °C with a scan rate of 200 °C/h. Large excess of peptides were used: about 600 μM for p38γ PBM, about 300 μM for HBVc PBM and HPV16E6 PBM and about 200 μM for HPV18E6 PBM. The buffer A was repeatedly scanned to ensure a stable buffer baseline. The buffer baseline was subtracted from the protein thermogram. Subsequent to normalization of the data by the protein concentration, a non-linear curve fitting algorithm was employed to obtain the Tm of the transition. All experiments were repeated three times.

[3] = AUC sedimentation velocity of free PTPN3 PDZ constructs; conditions: 20 °C
Method: To estimate the oligomeric state of the PTPN3-PDZ construct, analytical ultracentrifugation (AUC) experiments were performed (Table 2). Three different concentrations of the protein were tested, 10, 25 and 70 μM. Only one single peak was detected at 10 μM with a sedimentation coefficient of 1.5S in agreement with a monomeric form of 10.5 kDa. At 25 μM, an additional peak was detected with a sedimentation coefficient of 2.6S corresponding to a dimeric form.
Sedimentation velocity experiments were carried out at 20 °C using a Beckman Coulter XL-I centrifuge equipped with a AN60-Ti rotor. Various protein and protein–peptide complex concentrations (protein concentrations ranging from 12.5 to 70 μM) samples were centrifuged for 17 h at 42000 rpm. Data were analyzed with SEDFIT 15.1 using a continuous size distribution c(S) model. The partial specific volume, the viscosity and the density of the samples were calculated with […]. The processed data were used to obtain values of sedimentation coefficients at null concentration in our experimental conditions (S0) and to get the standard sedimentation coefficients in water at 20 °C (S0,w,20) (Table 2).

[4] = as above; conditions: 20 °C; remark: listed apart in the source
[5] = PTPN3-PDZ 25 μM, two peaks are present

Molecule | aggregation by HSQC peak intensity ([1]; after 10 h at 20 °C, data not shown) | Tm (thermal transition midpoint), free PDZ domain [2] | MW estimated ([3]; PTPN3-PDZ 10 μM, 42000 rpm) | Sed coef (S0,w,20) ([3]; PTPN3-PDZ 10 μM, standard coefficient in water at 20 °C) | MW estimated [3, 5] | Sed coef (S0,w,20) [3, 5] | oligomeric state of free PTPN3-PDZ ([3]; PTPN3-PDZ 70 μM) | aggregation by HSQC peak intensity ([1]; HSQC recorded during a week at 20 °C, PTPN3-PDZNext 170 μM) | MW estimated ([4]; PTPN3-PDZNext 17.5 μM) | Sed coef (S0,w,20) ([4]; PTPN3-PDZNext 17.5 μM) | MW estimated ([4]; PTPN3-PDZNext 35 μM) | Sed coef (S0,w,20) ([4]; PTPN3-PDZNext 35 μM) | MW estimated ([4]; PTPN3-PDZNext 70 μM) | Sed coef (S0,w,20) ([4]; PTPN3-PDZNext 70 μM) | oligomeric state of free PTPN3-PDZNext ([4]; PTPN3-PDZNext between 17.5 μM and 70 μM)
PTPN3-PDZ: recombinant PDZ domain of human PTPN3 expressed in E. coli (protein, left off: GST, N-terminal, cleaved, recombinant PDZ domain of human PTPN3 expressed in E. coli) GDSYLVLIRITPDEDGKFGFNLKGGVDQKMPLVVSRINPESPADTCIPKLNEGDQIVLINGRDISEHTHDQVVMFIKASRESHSRELALVIRRRAVRSFADFKSEDELNQLFPEAIFPMCPEGGDTLEGSMAQLKKGLESGTVLIQFEQLYRKKPGLAITFAKLPQNLDKNRYKDVLPYDTTRVLLQGNEDYINASYVNMEIPAANLVNKYIATQGPLPHTCAQFWQVVWDQKLSLIVMLTTLTERGRTKCHQYWPDPPDVMNHGGFHIQCQSEDCTIAYVSREMLVTNTQTGEEHTVTHLQYVAWPDHGVPDDSSDFLEFVNYVRSLRVDSEPVLVHCSAGIGRTGVLVTMETAMCLTERNLPIYPLDIVRKMRDQRAMMVQTSSQYKFVCEAILRVYEEGLVQMLDPS | significant loss of peak intensities | 41 °C | 12.4 kDa | 1.5 S | 11.3–25.9^a kDa | 1.5–2.6^a S | higher oligomeric species could be detected |  |  |  |  |  |  |  | 
PTPN3-PDZNext: PTPN3-PDZ extended at the N-terminal extremity by 15 residues with its wild-type upstream sequence (protein, left off: GST, N-terminal, cleaved) STEDASQYYCDKNDNGDSYLVLIRITPDEDGKFGFNLKGGVDQKMPLVVSRINPESPADTCIPKLNEGDQIVLINGRDISEHTHDQVVMFIKASRESHSRELALVIRRRAVRSFADFKSEDELNQLFPEAIFPMCPEGGDTLEGSMAQLKKGLESGTVLIQFEQLYRKKPGLAITFAKLPQNLDKNRYKDVLPYDTTRVLLQGNEDYINASYVNMEIPAANLVNKYIATQGPLPHTCAQFWQVVWDQKLSLIVMLTTLTERGRTKCHQYWPDPPDVMNHGGFHIQCQSEDCTIAYVSREMLVTNTQTGEEHTVTHLQYVAWPDHGVPDDSSDFLEFVNYVRSLRVDSEPVLVHCSAGIGRTGVLVTMETAMCLTERNLPIYPLDIVRKMRDQRAMMVQTSSQYKFVCEAILRVYEEGLVQMLDPS |  |  |  |  |  |  |  | without any signs of aggregation | 12.7 kDa | 1.6 S | 12.5 kDa | 1.7 S | 15 kDa | 1.6 S | devoid of higher oligomeric species

Source: publication PMC6520365, “Structural and functional characterization of the PDZ domain of the human phosphatase PTPN3 and its interaction with the human papillomavirus E6 oncoprotein” (Scientific Reports, 2019)
